Data on 14 molecules can be found in article PMC8847575, “HSL1 and BAM1/2 impact epidermal cell development by sensing distinct signaling peptides” (Nature Communications, 2022).

Where “and” joins values, the source holds several entries; their conditions need not be identical. Equal values may be shown once. Read-outs that look alike come from different tables or passages of the source. Square brackets hold non-standard residues; d marks the D form. Ends that are not written are not given here. Peptide text beside a SMILES is read from it. Hyp = O=C(O)[C@@H]1C[C@@H](O)CN1

In general, Kd refers to the concentration at which binding is half-saturated. Low readings indicate a tighter complex, high ones a looser complex. Usually koff stands for the rate constant with which the complex falls apart. Low readings indicate a long-lived complex, high ones a short-lived complex.

The target in experiment [1] is T1, BAM1 LRR ectodomain (Arabidopsis thaliana, UniProt O49545).
T1 construct: BAM1 (residues 20–637, AT5G65700); azurocidin or Drosophila BIP signal peptide (secretion signal) (N); made in house; host or cells: Trichoplusia ni Tnao38 insect cells (baculovirus)
T1 sequence (O49545 20-637): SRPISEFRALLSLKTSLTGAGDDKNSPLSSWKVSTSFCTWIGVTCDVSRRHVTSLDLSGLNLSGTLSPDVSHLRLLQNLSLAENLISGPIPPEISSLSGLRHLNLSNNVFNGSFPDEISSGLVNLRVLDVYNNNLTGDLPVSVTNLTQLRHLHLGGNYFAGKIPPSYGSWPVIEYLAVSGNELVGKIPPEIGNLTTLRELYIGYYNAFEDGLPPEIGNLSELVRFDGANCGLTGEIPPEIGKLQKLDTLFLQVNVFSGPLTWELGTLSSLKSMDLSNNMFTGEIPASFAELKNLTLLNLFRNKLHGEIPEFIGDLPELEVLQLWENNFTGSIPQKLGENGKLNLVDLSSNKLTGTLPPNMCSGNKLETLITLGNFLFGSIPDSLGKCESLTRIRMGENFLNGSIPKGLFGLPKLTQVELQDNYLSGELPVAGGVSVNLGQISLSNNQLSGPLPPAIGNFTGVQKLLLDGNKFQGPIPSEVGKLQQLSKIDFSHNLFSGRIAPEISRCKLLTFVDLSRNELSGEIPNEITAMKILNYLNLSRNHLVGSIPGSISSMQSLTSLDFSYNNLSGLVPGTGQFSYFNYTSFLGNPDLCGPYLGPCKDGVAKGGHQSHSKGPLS
Kind of experiment: ITC, peptide titrated into BAM1 ectodomain. It counts as binding. The conditions noted are these: ITC, 25 °C, mean ± SD of at least two independent experiments; for ΔH, peptide vs BAM1: peptide into BAM1 ectodomain, pH 5.0; for Kd (dissociation constant), peptide vs BAM1: peptide into BAM1 ectodomain (cell), 20 mM sodium citrate pH 5.0, 150 mM NaCl, N fitted to 1, n.d = no binding detected. From the text:
All genes used for protein expression in Trichoplusia ni Tnao38 cells[46] were codon optimized and cloned into a modified pFastBac vector (Geneva Biotech) providing an azurocidin[47] or Drosophila BIP signal peptide, a TEV (tobacco etch virus protease) cleavage site and a Strep-9xHis tandem affinity tag at their carboxy terminus. The genes used are coding for the Arabidopsis ectodomains of HSL1 (residues 17-618, AT1G28440), HAE (residues 20-620, AT4G28490) SERK1 (residues 24–213, AT1G71830), and BAM1 (residues 20–637, AT5G65700). To perform Grating-coupled interferometry (GCI) experiments, HSL1 was fused to a non-cleavable Avi-tag[49],[50]. Baculovirus generation was carried out in DH10 cells and virus amplification was done in Spodoptera frugiperda Sf9 cells. For protein expression, Trichoplusia ni Tnao38 cells were infected with HAE, HSL1, BAM1 and SERK1 virus with a multiplicity of infection (MOI) of 3. The cells were grown 1 day at 28 °C and two days at 22 °C at 110 rpm. After every expression round, secretion of our proteins was detected using an anti-His-HRP conjugated antibody from Roche (Ref:11965085001) in a 1:2000 dilution. […] Next, affinity tags were removed by incubating the purified proteins with recombinant His-tagged TEV protease, in a 1:50 ratio. The cleaved tag and the protease were separated from the ectodomains by a second Ni^2+ affinity step. Proteins were further purified by size-exclusion chromatography on a Superdex 200 Increase 10/300 GL column (GE Healthcare) equilibrated in 20 mM citric acid pH 5.0, 150 mM NaCl. Peak fractions containing the single proteins or complexes were concentrated using Amicon Ultra concentrators (Millipore, MWCO 10,000 for SERK1 and 30,000 for HAE, HSL1, and BAM1) and used for crystallization or biochemical experiments. Proteins were analyzed for purity and structural integrity by SDS-PAGE.
Experiments were performed at 25 °C using a MicroCal PEAQ-ITC (Malvern Instruments) with a 200 µL standard cell and a 40 μL titration syringe. HSL1, BAM1, and SERK1 proteins were gel-filtrated into the ITC buffer (20 mM sodium citrate pH 5.0, 150 mM NaCl). Molar protein concentrations for HSL1, BAM1, and SERK1 were calculated using their molar extinction coefficient and a molecular weight of 74,896 and 27,551 Da, respectively as previously determined. A typical experiment consisted of injecting 2 μL of a range between 75 and 600 μM solution of ligand into 10 to 30 μM HAE, HSL1, or BAM1 solution in the cell at 150 s intervals and 500 rpm stirring speed. The SERK1 vs HAE/HSL1-peptide experiments were performed by titrating 100 µM SERK1 in the cell, using the same injection pattern. ITC data were corrected for the heat of dilution by subtracting the mixing enthalpies for titrant solution injections into protein-free ITC buffer. Experiments were done in duplicates or triplicates, otherwise specified, and data were analyzed using the MicroCal PEAQ-ITC Analysis Software provided by the manufacturer. […] The N values were fitted to 1 in the analysis.
For orientation: In ITC the heat of successive injections is recorded.

The target of experiment [2] is T2, biotinylated HSL1 ectodomain with Avi-tag (Arabidopsis, UniProt Q9SGP2 17-618, biotin on the Avi-tag (BirA)).
T2 chain: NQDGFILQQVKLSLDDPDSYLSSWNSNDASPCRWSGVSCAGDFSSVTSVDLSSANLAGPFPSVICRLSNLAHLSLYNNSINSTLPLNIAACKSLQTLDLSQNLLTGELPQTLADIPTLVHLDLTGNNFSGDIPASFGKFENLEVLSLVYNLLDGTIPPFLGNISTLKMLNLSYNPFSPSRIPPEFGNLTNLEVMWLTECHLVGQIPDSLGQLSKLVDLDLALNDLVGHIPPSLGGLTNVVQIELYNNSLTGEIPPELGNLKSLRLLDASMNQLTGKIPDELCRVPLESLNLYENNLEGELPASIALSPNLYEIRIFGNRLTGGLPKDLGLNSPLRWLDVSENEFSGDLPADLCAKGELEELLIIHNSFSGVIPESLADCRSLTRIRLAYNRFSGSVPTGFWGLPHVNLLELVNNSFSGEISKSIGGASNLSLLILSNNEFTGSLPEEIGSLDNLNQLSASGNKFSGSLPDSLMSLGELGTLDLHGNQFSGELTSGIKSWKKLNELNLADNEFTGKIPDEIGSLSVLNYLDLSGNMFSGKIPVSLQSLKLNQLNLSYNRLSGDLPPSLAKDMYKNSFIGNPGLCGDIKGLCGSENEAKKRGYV
Description: GCI.

For experiment [3], the target named is T3, HSL1 (HAESA-LIKE 1) ectodomain (Arabidopsis, UniProt Q9SGP2 17-618).
T3 chain: T2 chain
Kind of experiment: ITC.

The target of experiment [4] is T2, biotinylated HSL1 ectodomain with ….
For experiment [5] the target is unchanged.
For experiment [6] the target is unchanged. Description: GCI.
For experiment [7], the target named is T4, BAM1 (BARELY ANY MERISTEM 1) ectodomain (Arabidopsis, UniProt O49545 20-637).
T4 chain: T1 sequence (O49545 20-637)
Description: ITC.

For `CC[C@H](C)[C@H](NC(=O)[C@@H]1CCCN1)C(=O)N[C@H](C(=O)N1CCC[C@H]1C(=O)N[C@@H](CO)C(=O)NCC(=O)N1C[C@H](O)C[C@H]1C(=O)N[C@@H](CC(N)=O)C(=O)N1CCC[C@H]1C(=O)N[C@@H](CC(C)C)C(=O)N[C@@H](Cc1c[nH]cn1)C(=O)N[C@@H](CC(N)=O)C(=O)O)C(C)C` [CLE9^R109PL110I] (H-PIVPSG[Hyp]NPLHN-OH), the “ΔH, peptide vs BAM1” value in experiment [1] is reported as -27 ± 11 kcal/mol.

For `CC[C@H](C)[C@H](NC(=O)[C@@H]1CCCN1)C(=O)N1CCC[C@H]1C(=O)N1CCC[C@H]1C(=O)N[C@@H](CO)C(=O)NCC(=O)N1C[C@H](O)C[C@H]1C(=O)N[C@@H](CC(N)=O)C(=O)N1CCC[C@H]1C(=O)N[C@@H](CC(C)C)C(=O)N[C@@H](Cc1c[nH]cn1)C(=O)N[C@@H](CC(N)=O)C(=O)O` [CLE9^R109PL110IV111P] (H-PIPPSG[Hyp]NPLHN-OH), in experiment [1], the “Kd (dissociation constant), peptide vs BAM1” value is given as “non-detectable binding”.

As for `CC(C)C[C@H](NC(=O)[C@@H]1CCCN1C(=O)[C@H](CC(N)=O)NC(=O)[C@@H]1C[C@@H](O)CN1C(=O)CNC(=O)[C@H](CO)NC(=O)[C@@H]1CCCN1C(=O)[C@@H]1CCCN1C(=O)[C@H](CC(C)C)NC(=O)[C@@H]1CCCN1)C(=O)N[C@@H](Cc1c[nH]cn1)C(=O)N[C@@H](CC(N)=O)C(=O)O` [CLE9^R109PV111P] (H-PLPPSG[Hyp]NPLHN-OH), the “ΔH, peptide vs BAM1” value in experiment [1] is -3.7 ± 0.4 kcal/mol.

For `CC(C)C[C@H](NC(=O)[C@@H]1CCCN1)C(=O)N[C@H](C(=O)N1CCC[C@H]1C(=O)N[C@@H](CO)C(=O)NCC(=O)N1C[C@H](O)C[C@H]1C(=O)N[C@@H](CC(N)=O)C(=O)N1CCC[C@H]1C(=O)N[C@@H](CC(C)C)C(=O)N[C@@H](Cc1c[nH]cn1)C(=O)N[C@@H](CC(N)=O)C(=O)O)C(C)C` [CLE9^R109P] (H-PLVPSG[Hyp]NPLHN-OH), the “ΔH, peptide vs BAM1” value in experiment [1] is -26 ± 8 kcal/mol.

Take `CC(C)C[C@H](NC(=O)[C@@H](N)CCCNC(=N)N)C(=O)N[C@H](C(=O)N1CCC[C@H]1C(=O)N[C@@H](CO)C(=O)N[C@@H](C)C(=O)N1C[C@H](O)C[C@H]1C(=O)N[C@@H](CO)C(=O)N[C@@H](CCCCN)C(=O)N[C@@H](CCCNC(=N)N)C(=O)N[C@@H](Cc1c[nH]cn1)C(=O)N[C@@H](CC(N)=O)C(=O)O)C(C)C` [IDA^P58RI59LP60V] (H-RLVPSA[Hyp]SKRHN-OH): in experiment [1], the “Kd (dissociation constant), peptide vs BAM1” value is reported as “restore binding to BAM1”.

Consider `CC(C)C[C@H](NC(=O)[C@@H]1CCCN1C(=O)[C@H](CC(N)=O)NC(=O)[C@@H]1C[C@@H](O)CN1C(=O)CNC(=O)[C@H](CO)NC(=O)[C@@H]1CCCN1C(=O)[C@@H]1CCCN1C(=O)[C@H](CC(C)C)NC(=O)[C@@H](N)CCCNC(=N)N)C(=O)N[C@@H](Cc1c[nH]cn1)C(=O)N[C@@H](CC(N)=O)C(=O)O` [CLE9^V111P] (H-RLPPSG[Hyp]NPLHN-OH), for which the “ΔH, peptide vs BAM1” value in experiment [1] is listed as -19 ± 8.3 kcal/mol.

B1: IDA (INFLORESCENCE DEFICIENT IN ABSCISSION) mature peptide (peptide)
chain: YVPIPPSAPSKRHN
modifications: also: hydroxyproline at Pro64 (precursor numbering), position in chain not settled
For B1, the Kd in experiment [2] was 580 nM; in experiment [3] it was 400 nM; in experiment [4], 655 nM and 422 nM. Further, the koff in experiment [5] is 0.15 s⁻¹ and 0.12 s⁻¹; in experiment [6] it was 0.127 s⁻¹.

The molecule RLVPSAPSKRHN [IDA^P58RI59LP60V peptide] registered a Kd in experiment [7] of 980 nM.

In the case of YVPVPASGPSRKHN (also: conserved central hydroxyproline, position not given here) [IDL2 (IDA-LIKE 2) mature peptide], in experiment [3], binding was characterised by a dissociation constant (Kd) of 121 nM.

With PLVPSGPNPLHN [CLE9 variant with the first residue substituted by the corresponding one of IDA], the dissociation constant (Kd) in experiment [7] is 91 nM.

PLPPSGPNPLHN (also: Hyp112 and Hyp115 presumed as in wild-type) [CLE9^R109PV111P]: in experiment [7], the Kd came to 2240 nM.

B2: IDL1 (IDA-LIKE 1) mature peptide (peptide)
chain: YVLVPPSGPSMRHN
modifications: not fully specified; also: conserved central hydroxyproline, position not given here
Consider B2, for which the Kd in experiment [3] was 590 nM.

On to PVPASAPSRKHN [IDL4 (IDA-LIKE 4) mature peptide], for which the Kd in experiment [2] is 1850 nM; in experiment [3], 2020 nM; in experiment [4] it was 2700 nM and 1000 nM. The dissociation rate constant (koff) in experiment [5] is 0.52 s⁻¹ and 0.75 s⁻¹; in experiment [6] it was 0.65 s⁻¹.

B3: IDL3 (IDA-LIKE 3) mature peptide (peptide)
chain: PVPTSGPSRKHN
modifications: not fully specified; also: conserved central hydroxyproline, position not given here
Take B3: the Kd in experiment [2] was 800 nM; in experiment [3] it was 690 nM; in experiment [4], 608 nM and 1000 nM. For the same molecule, the koff was 0.59 s⁻¹ and 0.49 s⁻¹ in experiment [5]; 0.55 s⁻¹ in experiment [6].
